Experimental data reported in patent publication US8273357B2, “Antigen-carbohydrate conjugates” (Massachusetts Institute of Technology, priority 2004, dated 2012).
“And” between values parts separate entries of the source, which are not always exact repeats. Equal entries are not always repeated. “Also recorded” adds a separate entry of the source.

Assays:
[1] = system: CD11c+ dendritic cells / OTII T cells; test: Antigen presentation assay, purified CD11c+ dendritic cells and purified OTII T cells; format: cell-based, mouse
Method: FIGS. 4A, 4B, 4C and 4D are graphs showing that CD11c^+ dendritic cells are the main antigen presenting cells presenting 3-1-targeted antigen. […] 1.5×10^4 Splenic CD11c^+ dendritic cells purified from C57BL/6 mice and 3.0×10^4 purified OTII T cells were incubated with OVA (starting concentration 300 μg mL^−1) or (OVA)-3-1 (starting concentration 25 μg mL^−1) in graded doses for eight-four hours with [^3H]thymidine (1 μCi) added for the last twelve hours. […] Purified CD11c^+ dendritic cells and OTII T cells were incubated with (OVA)-3-1 (25 μg mL^−1)±each potential inhibitor (100 μg mL^−1). T cell proliferation was determined as for FIG. 4A. […] CD11c^+ dendritic cells and OTII T cells were incubated with OVA or (OVA)-3-1±lipopolysaccharide ([…]). Also included are all ‘non-dendritic cells’ (macrophages and B cells) obtained during the purification of the dendritic cells. T cell proliferation was determined as described in FIG. 4A. […] Supernatants from cells described in FIG. 4C were collected at forty-eight and seventy-two hours and measured for IFN-γ by ELISA; the values presented are from the seventy-two hour time point. All measurements here were performed in triplicate.
To confirm that the increased T cell proliferation observed with (OVA)-3-1 was due to the selective uptake of this conjugate by dendritic cells and not B cells or macrophages, purified CD11c^+ dendritic cells were prepared from wild-type C57BL/6 mice and the OVA-specific T cells from transgenic OTII mice (see Materials & Methods). The in vitro antigen presentation assays described above were then repeated. […] By comparison, >50-fold more unmodified OVA was required to obtain similar levels of T cell proliferation. When B cells and macrophages were used as antigen-presenting cells in place of purified dendritic cells, the resulting T cell responses were negligible (FIG. 4C), providing strong confirmation that CD11c^+ dendritic cells are the main antigen-presenting cells mediating uptake and presentation of (OVA)-3-1 to OTII T cells.
Pooled inguinal lymph nodes were dissociated in 10% Fetal Bovine Serum RPMI (supplemented with 2 mM L-glutamine) and either mechanically dissociated between two glass slides or, to improve the overall cell yield, incubated in the presence of collagenase (Boehringer) and EDTA for 25 minutes at 37° C./5% CO2 to dissociate DC-T cell clusters. For antigen presentation assays with whole splenocytes, isolated spleens were injected with collagenase/EDTA, gently teased apart and incubated as described above. Splenocytes were cultured in 96-well round-bottom plates at a density of 3×10^5 cells/0.2 mL. In antigen presentation assays utilizing purified dendritic cells and T cells, dendritic cells were isolated from the spleens of C57BL/6 mice following collagenase/EDTA treatment by labeling the dendritic cells with commercially available magnetic microbeads linked to an anti-CD11c^+ antibody (Miltenyi Biotec, Bergisch Gladbach, Germany) (according to the Miltenyi Biotec protocol) and separating labeled Dendritic cells from non-dendritic cells by application of a magnetic field. Similarly, purified […] T cells were obtained from spleens of OTII transgenic mice using magnetic beads Dynal (Oslo, Norway). Purified dendritic cells and T cells were seeded onto 96-well plates round-bottom Plates at a 1:2 DC:T cell ratio unless stated otherwise in the Figures.

[2] = system: OTII T cells; test: Adoptive transfer of CFSE-labeled OTII cells, immunization with CFA or mBSA, cell number and CFSE dilution; format: in vivo, mouse; details: for T cells that had undergone cell division: antigen 50 ng ± mBSA 50 μg subcutaneous, CFSE
Method: FIGS. 7A and 7B are a series of dot plots showing that inflammatory stimuli dampen the effects of DC targeting by (OVA)-3-1. FIG. 7A includes two dot plots showing the 5-(6)-carboxyfluorescein diacetate succinimidyl ester (CFSE), a cell-permeable dye, intensity present in a population of cells. 2×10^7 CFSE-labeled OTII splenocytes were adoptively transferred to B6.Ly5.2/Cr recipients and the mice were immunized subcutaneously with OVA (200 ng) or (OVA)-3-1 (200 ng) emulsified in Complete Freund's Adjuvant. At seventy-two hours post immunization the draining inguinal lymph nodes were isolated and the expansion of CD45.2^+Vα2^+ was evaluated for CFSE dilution by flow cytometry. 4×10^5 total counts were collected. The plots display the CFSE intensity associated with the gated population of Vα2^+CD45.2^+ donor cells. The numbers indicate the percentage of CFSE high (undivided; R3 gate) and CFSE low (divided; R4 gate) OTII T cells. FIG. 7B is a series of five dot plots showing the enhancement in T cell proliferation promoted by neoglycoprotein mBSA. CFSE-labeled OTII splenocytes were adoptively transferred as in (A) and mice were immunized subcutaneously with mBSA (50 μg); OVA (50 ng); (OVA)-3-1 (50 ng); OVA (50 ng)+mBSA (50 μg) or (OVA)-3-1 (50 ng)+mBSA (50 μg). At 3 days the mice were sacrificed and isolated cells were analyzed as described in (A). Both FIGS. 7A and 7B are results from one of two separate experiments.
These cytokines aid in the recruitment and activation of monocytes and dendritic cells at the site of administration, thereby promoting a heightened immune response. […] Prior to transferring the CD45.2 OTII T cells to the B6.Ly5.2/Cr recipients, the cells were stained with 5-(6)-carboxyfluorescein diacetate succinimidyl ester (CFSE), a cell-permeable dye that freely crosses the cell membrane; once inside the cell, however, cellular esterases hydrolyze the CFSE's ester functional groups to generate a negatively charged molecule that cannot cross back across the cell membrane. This dye is used to monitor cell division by flow cytometry as each successive cell division leads to a dilution of CFSE among the daughter cells.
To administer pro-inflammatory stimuli at the same time as soluble antigen, OVA and (OVA)-3-1 were emulsified in Complete Freund's Adjuvant (CFA) prior to immunization. CFA is an oil-based mixture of mycobacterial cell wall components that is known to induce strong TH1 T cell responses^2. Seventy-two hours after immunization, cells from the draining lymph nodes were isolated and analyzed by flow cytometry for cell number and divisions (FIG. 7A). […] In fact, the enhancement previously observed relative to soluble OVA (FIG. 6B) was largely diminished. […] Without being tied to one particular theory, one potential reason for this observation could be that dendritic cells targeted with (OVA)-3-1 produced more peptide-MHC class II complexes than those targeted by OVA as receptor-mediated endocytosis delivered more antigen to the cell before full maturation was reached^10.
Since most lectins have weak affinities for monosaccharides, these experiments were repeated with BSA that was modified with approximately 25 mannose residues per protein molecule (mBSA). […] Mice that had received CFSE-labeled OTH T cells were immunized with mBSA, OVA, (OVA)-3-1, OVA plus mBSA, or (OVA)-3-1 plus mBSA and their T cell responses were analyzed at seventy-two hours (FIG. 7B). […]

[3] = purified CD11c+ dendritic cells and OTII T cells

## mBSA: BSA modified with approximately 25 mannose residues per protein molecule [reference compound]
[1]; (OVA)-3-1 25 μg mL^−1, inhibitor 100 μg mL^−1
  inhibitory effect on (OVA)-3-1 presentation by dendritic cells: Neither mBSA nor Lewis^x-BSA were inhibitory
[2]; mBSA 50 μg subcutaneous, 72 h
  OTII T cell proliferation after immunization with mBSA alone: did not proliferate

B1: (OVA)-3-1: ovalbumin modified via SMCC with nonasaccharide 3-1, average of three saccharides per OVA (conjugate)
chain: GSIGAASMEFCFDVFKELKVHHANENIFYCPIAIMSALAMVYLGAKDSTRTQINKVVRFDKLPGFGDSIEAQCGTSVNVHSSLRDILNQITKPNDVYSFSLASRLYAEERYPILPEYLQCVKELYRGGLEPINFQTAADQARELINSWVESQTNGIIRNVLQPSSVDSQTAMVLVNAIVFKGLWEKAFKDEDTQAMPFRVTEQESKPVQMMYQIGLFRVASMASEKMKILELPFASGTMSMLVLLPDEVSGLEQLESIINFEKLTEWTSSNVMEERKIKVYLPRMKMEEKYNLTSVLMAMGITDVFSSSANLSGISSAESLKISQAVHAAHAEINEAGREVVGSAEAGVDAASVSEEFRADHPFLFCIKHIATNAVLFFGRCVSP
[1]; parallel titration series
  capture and presentation by purified CD11c+ dendritic cells to OTII T cells compared to soluble OVA: highly efficient; also recorded: efficiently present
[1]; plus lipopolysaccharide (LPS)
  decrease in presentation to OTII T cells as a result of TLR-mediated dendritic cell maturation: 60%
  presentation to T cells upon TLR-4 stimulation: remained better than targeting by unmodified OVA; also recorded: significantly decreased
[1]; [3]
  low concentration at which capture and presentation was still highly efficient: 16 nM
[2]; 50 ng subcutaneous, 72 h
  increase in OTII T cell number compared to OVA: 2 fold
[2]; 72 h
  T cells that had undergone cell division: 58% and 55%
[2]; in vivo immunization
  enhancement of T cell activation / proliferation relative to OVA in saline: 2 fold

B2: ovalbumin (protein, UniProt P01012 2-386, looked up)
Ovalbumin: GSIGAASMEFCFDVFKELKVHHANENIFYCPIAIMSALAMVYLGAKDSTRTQINKVVRFDKLPGFGDSIEAQCGTSVNVHSSLRDILNQITKPNDVYSFSLASRLYAEERYPILPEYLQCVKELYRGGLEPINFQTAADQARELINSWVESQTNGIIRNVLQPSSVDSQTAMVLVNAIVFKGLWEKAFKDEDTQAMPFRVTEQESKPVQMMYQIGLFRVASMASEKMKILELPFASGTMSMLVLLPDEVSGLEQLESIINFEKLTEWTSSNVMEERKIKVYLPRMKMEEKYNLTSVLMAMGITDVFSSSANLSGISSAESLKISQAVHAAHAEINEAGREVVGSAEAGVDAASVSEEFRADHPFLFCIKHIATNAVLFFGRCVSP
notes: model antigen, unmodified
[1]; plus lipopolysaccharide (LPS)
  decrease in presentation to OTII T cells as a result of TLR-mediated dendritic cell maturation: 30%
[1]; [3]
  excess of unmodified OVA required to obtain levels of T cell proliferation similar to (OVA)-3-1: > 50 fold
[2]; 72 h
  T cells that had undergone cell division: 33%
